We go through 14 molecules from US20250002563A1 (UNIVERSITY OF PITTSBURGH OF THE COMMONWEALTH SYSTEM OF …, published 2025).

In assay [1] the target is recombinant RBD of the SARS-CoV-2 S protein (Example 1) (SARS-CoV-2, UniProt P0DTC2 319-541). The experiment in a line: SPR, RBD immobilized on CM5. In general terms: Surface plasmon resonance follows binding to a sensor surface in real time, without labels.
In assay [2] the target is SARS-CoV-2 spike on pseudotyped virus particles (Wuhan-Hu-1 strain) (SARS-CoV-2, UniProt P0DTC2 14-1273). Nature of the assay: cell-based or functional assay.
The target of assay [3] is spike of SARS-CoV-2 Munich strain (authentic virus) (SARS-CoV-2). The experiment in a line: cell-based or functional assay.
The target in assay [4] is T1, RBDSARS-CoV-2 (SARS-CoV-2 S protein residues 319-539, C-terminal His-tag) (SARS-CoV-2, UniProt P0DTC2 319-539). Nature of the assay: ELISA. (In general: An ELISA detects its analyte on a solid surface through an enzyme-linked reagent.)
Assay [5] deals with T2, RBDSARS-CoV (SARS-CoV S protein residues 318-510, C-terminal His-tag) (SARS-CoV, UniProt P59594 318-510). Nature of the assay: ELISA.
Assay [6] addresses T1, RBDSARS-CoV-2 (SARS-CoV-2 S protein …). Nature of the assay: SPR, RBD immobilized on CM5.
Assay [7] addresses T2, RBDSARS-CoV (SARS-CoV S protein …). The experiment in a line: SPR, RBD immobilized on CM5.

Some results are limits rather than exact numbers.

B1: Nb89 (VHH)
VHH: HVQLVESGGGLVQAGGSLRLSCAASGGTFTTFRMAWFRQTPGKEREFVAASSWGFVNYADPVKGRFTISRDNAKNTVYLEMSSLKTEDTAVYYCAARNPGTGQYDYWGQGTQVTVSS
With B1, the Kd (in general, the concentration at which binding is half-saturated) in assay [1] was 0.108 nM. In addition, in assay [2], the “IC50, pseudotyped SARS-CoV-2 neutralization assay (luciferase)” value (from here on “IC50 … (luciferase)”) is 0.129 nM.

B2: 5p-60 (VHH)
VHH: QVQLVESGGGLVQAGGSLRLSCAVSGRTISTFGMGWFRQAPGKEREFVATITRDEDMLLYADSVKGRFTISRDTAKNMVFLQMNSLKIEDTALYYCAVRRDSSWGYSRQSTEYDYWGQGTQVTVSS
notes: class II(A) psNb
In the case of B2, in assay [3], the “PRNT SARS-CoV-2 Munich IC50” value came out at 9.79 nM. Also, the IC50 in assay [4] and in assay [5] was under 10 nM each time.

B3: 5p-20 (VHH)
VHH: HVQLVESGGGLVQAGGSLRLSCAASGGTFSAYAMGWFRQVPGKEREFVAGIARSGSDYYGDSVKGRFIISRDNTKNTVYLQMNSLKAEDTGVYYCAADRAILYHGLSQRTQAYAYWGPGTQVTVSS
As to B3, the concentration for half-maximal inhibition (IC50) (as a rule, the concentration that inhibits the measured activity by half) was under 10 nM in assay [4] and 100 to 1000 nM in assay [5].

B4: 5p-182 (VHH)
VHH: EVQLVESGGGLVQTGGSLRLSCALSGYTFSIFPTAWFRQAPGKEREFVAGIRWNGSTRDYTEYADFVKGRFTISRDNAKNMVYLQMISLKPEDTALYYCAASDGVIDGTNANAYRYWGQGTQVTVSS
notes: class I psNb
B4: in assay [3], the “PRNT SARS-CoV-2 Munich IC50” value stood at 0.35 nM. Moreover, the results for the IC50 in assay [4] and in assay [5] were under 10 nM and 1000 to 8000 nM, respectively.

B5: Nb20 (VHH)
VHH: QVQLVESGGGLVQAGGSLRLSCAVSGAGAHRVGWFRRAPGKEREFVAAIGASGGMTNYLDSVKGRFTISRDNAKNTIYLQMNSLKPQDTAVYYCAARDIETAEYIYWGQGTQVTVSS
For B5, the “IC50 … (luciferase)” value in assay [2] amounted to 0.102 nM.

B6: Nb21 (VHH)
VHH: QVQLVESGGGLVQAGGSLRLSCAVSGLGAHRVGWFRRAPGKEREFVAAIGANGGNTNYLDSVKGRFTISRDNAKNTIYLQMNSLKPQDTAVYYCAARDIETAEYTYWGQGTQVTVSS
For B6, the “IC50 … (luciferase)” value in assay [2] was 0.045 nM.

B7: R58 (VHH)
VHH: QVQLVESGGGLVQAGGSLRLSCAASGRDFSSTVMGWFRQAPGKERELVAWMTVTYDITYYADSVKGRFTISKDNAKNTVYLQANSLKPDDTAVYYCASGALRVGSFSPDYWGQGTQVTVSS
For B7, the IC50 in assay [4] was in the range of 10 to 100 nM; in assay [5], 1000 to 8000 nM.

B8: 5p-118 (VHH)
VHH: QVQLVESGGGLVQAGESLRLSCAASKPTFRNFAAGWFRQTPGKDREFVAVIEYDGDSAYYADSVKGRFTISRDNAKNTVYLQMNRLKPGDTAVYICAIGGNHYDPSKYYTADEYDYWGQGTQVTVSS
notes: class II(B) psNb
On to B8, for which the “PRNT SARS-CoV-2 Munich IC50” value in assay [3] worked out at 7.41 nM. Further, the IC50 in assay [4] and in assay [5] was under 10 nM throughout. Moreover, the values for the dissociation constant (Kd) in assay [6] and in assay [7] were under 0.001 nM and 0.00396 nM, respectively.

B9: 5p-132 (VHH)
VHH: QVQLVESGGGLVQAGGSLRLSCTASGYDFSILAIAWYRQAPGKERELVAAISRVGSTDYADSVKGRFTISRDNTKNTVSLQMDSLKPEDTAVYYCNAGIPMTTVLSGLGFWGQGTQVTVSS
notes: class IV psNb
Take B9: the IC50 in assay [4] was under 10 nM. For the same molecule, the values for the Kd in assay [6] and in assay [7] were 0.39 nM and 304 nM, respectively.

B10: 5p-18 (VHH)
VHH: EVQLVESGGGLVQAGGSLRLSCEASGRTFSSYAMGWFRQAPGKEREFVAAISQGGSTDYGDSTKGRFTISRDNAKNTVYLQMNSLKPEDTAVYYCAADQTPLRYAYSTRSQDYDYWGQGTQVTVSS
With B10, the IC50 in assay [4] and in assay [5] was under 10 nM each time.

B11: 5p-35 (VHH)
VHH: HVQLVESGGGLVQAGGSLRLSCAASGRTFSRYAAGWFRQAPGKEREFVAVIEWDGDSAYYADPVKGRFTISRDNAKNTVYLQMNRLKPEDTAVYICAVGGNHYSRSKYYNLDEYDDWGQGTQVTVSS
notes: class II(B) psNb
For B11, the “PRNT SARS-CoV-2 Munich IC50” value in assay [3] was determined as 42.2 nM. Moreover, the IC50 in assay [4] and in assay [5] was under 10 nM in each case.

B12: 5p-15 (VHH)
VHH: QVQLVESGGGLVQPGDSLRLACAASGGTFGYYALGWFRQAPGKEREFVGSITQTGFGTKYADAVKGRFTISRDNAKNTMYLQMNSLKPEDTAVYYCAADPTAQNMGIRDPPYWGQGTQVTVSS
Consider B12, for which the IC50 in assay [4] and in assay [5] was 10 to 100 nM in each case.

B13: 5p-38 (VHH)
VHH: QVQLVESGGGLVQAGGSLRLSCAAAARFSTSAMGWFRQAPGKEREFVAAISWSNTNTHYADTVKGRFTISADTAKETVDLQMNSLKPEDTAVYYCVQGGWGIRQPIIVDYWGKGTQVTVSS
notes: class II(B) psNb
With B13, the “PRNT SARS-CoV-2 Munich IC50” value in assay [3] was 59.9 nM. For the same molecule, the IC50 in assay [4] and in assay [5] was under 10 nM throughout.

B14: 5p-23 (VHH)
VHH: HVQLVESGGGLVQAGDSLRLSCAASGGTFSSYAMGWFRQVPGKEREFVAAISRGGSTDYADSVKGRFTISRDNAKNTVNLQMNSLKPEDTAVYYCAADRSPLFWGMSQSHGEYDYWGQGTQVTVSS
In the case of B14, the values for the IC50 in assay [4] and in assay [5] were under 10 nM and 10 to 100 nM, respectively.
